From paper PMC9242090 (The Journal of Experimental Medicine, 2022)
Residue numbers refer to the chain shown, from its start. No end group written: not given here.

T1: Peptide 29 (Pep29) (Plasmodium falciparum 3D7, also: biotin, position not given here)
T1 chain: NANPNANPNANPNAN

B1: CIS43_Var11 Fab (Fab, V domains shown)
VH: QRQLVQSGAEVKKPGASVKVSCKASGYTFTSYAIHWVRQAPGQRLEWMGWIKAGNGNTRYSQKFQDRVTITRDTSTTTAYMELSSLRSEDTAVYYCALLTVLTPDDAFDIWGQGTMVTVSS
VL: not shown
B2: CIS43_Var18 Fab (Fab, V domains shown)
VH: B1 VH with A97V
VL: not shown

Biological target: T1, Peptide 29 (Pep29)
Assay: BLI

| Binder | binding result |
| --- | --- |
| B1 | binds |
| B2 | binds |
